For this series, the system named is Escherichia coli TOP10. The series can be described thus: shrunken log2 fold change of peptide-encoding DNA abundance (4.5 h post-induction vs induction); higher = less antimicrobial activity (less host growth inhibition). The conditions noted are these: time post-induction: 4.5 h; library: site-saturation at positions 5, 18, 19, 20.
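Note: peptides expressed intracellularly from a pBAD plasmid library in pooled LB shake-flask culture, induced with 0.3% L-arabinose, DNA abundance read by NGS, three biological replicates, DESeq2 with apeglm shrinkage.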

Turning to RRIRLRPPRLPRPRPRPHCMPRP, the “shrunken log2 fold change” value is -0.283.

Consider RRIRVRPPRLPRPRPRPSYQPRP, for which the “shrunken log2 fold change” value was -0.34.

Consider RRIRHRPPRLPRPRPRPNQAPRP, for which the “shrunken log2 fold change” value turned out to be 0.033.

Take RRIRCRPPRLPRPRPRPRFFPRP: the “shrunken log2 fold change” value came out at 0.191.

As for RRIRPRPPRLPRPRPRPPLDPRP, the “shrunken log2 fold change” value worked out at 0.517.

RRIRSRPPRLPRPRPRPDDKPRP: the “shrunken log2 fold change” value came out at 0.132.

For the sequence RRIRVRPPRLPRPRPRPQCEPRP, the “shrunken log2 fold change” value is -0.0122.

RRIRPRPPRLPRPRPRPGMLPRP: the “shrunken log2 fold change” value was -0.0338.

As to RRIRPRPPRLPRPRPRPSSHPRP, the “shrunken log2 fold change” value was -0.417.

For the sequence RRIRFRPPRLPRPRPRPPNEPRP, the “shrunken log2 fold change” value is 0.0211.

In the case of RRIRERPPRLPRPRPRPTMLPRP, the “shrunken log2 fold change” value worked out at 0.00422.

In the case of RRIRMRPPRLPRPRPRPKRNPRP, the “shrunken log2 fold change” value was determined as 1.66.

Consider RRIRQRPPRLPRPRPRPAKYPRP, for which the “shrunken log2 fold change” value is -0.0291.

In the case of RRIRFRPPRLPRPRPRPYKIPRP, the “shrunken log2 fold change” value is -0.462.

In the case of RRIRSRPPRLPRPRPRPLHFPRP, the “shrunken log2 fold change” value was -0.17.

RRIRWRPPRLPRPRPRPDNDPRP: the “shrunken log2 fold change” value was -0.0628.

On to RRIRSRPPRLPRPRPRPFWDPRP, for which the “shrunken log2 fold change” value came to 0.0853.

In the case of RRIRFRPPRLPRPRPRPYAQPRP, the “shrunken log2 fold change” value was -0.533.

As to RRIRGRPPRLPRPRPRPFDNPRP, the “shrunken log2 fold change” value is 0.23.

Take RRIRTRPPRLPRPRPRPNVDPRP: the “shrunken log2 fold change” value was -0.625.

For RRIRHRPPRLPRPRPRPFEAPRP, the “shrunken log2 fold change” value was -0.214.

Regarding RRIRVRPPRLPRPRPRPDITPRP, the “shrunken log2 fold change” value was -0.305.

With RRIRTRPPRLPRPRPRPAAIPRP, the “shrunken log2 fold change” value is 0.163.

For the sequence RRIRCRPPRLPRPRPRPKFRPRP, the “shrunken log2 fold change” value was -0.375.

As to RRIRLRPPRLPRPRPRPHKIPRP, the “shrunken log2 fold change” value was -0.0592.

As for RRIRPRPPRLPRPRPRPIMGPRP, the “shrunken log2 fold change” value was -0.233.

As to RRIRPRPPRLPRPRPRPDAHPRP, the “shrunken log2 fold change” value came out at 0.209.

As for RRIRQRPPRLPRPRPRPLMHPRP, the “shrunken log2 fold change” value is -0.00724.

In the case of RRIRIRPPRLPRPRPRPSETPRP, the “shrunken log2 fold change” value was -0.297.

For the sequence RRIRNRPPRLPRPRPRPHPQPRP, the “shrunken log2 fold change” value is -0.106.

In the case of RRIRERPPRLPRPRPRPAGNPRP, the “shrunken log2 fold change” value was -0.0376.

For the sequence RRIRTRPPRLPRPRPRPIAKPRP, the “shrunken log2 fold change” value is -0.3.

Consider RRIRYRPPRLPRPRPRPHFDPRP, for which the “shrunken log2 fold change” value is 0.144.

Turning to RRIRTRPPRLPRPRPRPRCMPRP, the “shrunken log2 fold change” value was -0.288.

Regarding RRIRARPPRLPRPRPRPYTGPRP, the “shrunken log2 fold change” value is -0.645.

With RRIRCRPPRLPRPRPRPWRQPRP, the “shrunken log2 fold change” value was -0.167.

Turning to RRIRWRPPRLPRPRPRPNKAPRP, the “shrunken log2 fold change” value was -0.00104.

RRIRERPPRLPRPRPRPGDFPRP: the “shrunken log2 fold change” value was -0.107.

Consider RRIRLRPPRLPRPRPRPGWAPRP, for which the “shrunken log2 fold change” value came to 0.691.

RRIRPRPPRLPRPRPRPKTVPRP: the “shrunken log2 fold change” value was -0.171.

RRIRNRPPRLPRPRPRPMYFPRP: the “shrunken log2 fold change” value was -0.0737.

Take RRIRQRPPRLPRPRPRPHMDPRP: the “shrunken log2 fold change” value is -1.07.

For the sequence RRIRGRPPRLPRPRPRPPMFPRP, the “shrunken log2 fold change” value worked out at 0.295.

Turning to RRIRRRPPRLPRPRPRPFCYPRP, the “shrunken log2 fold change” value is -0.00369.

Consider RRIRIRPPRLPRPRPRPPFEPRP, for which the “shrunken log2 fold change” value is -0.0183.

For the sequence RRIRSRPPRLPRPRPRPEVWPRP, the “shrunken log2 fold change” value was found to be 0.779.

For the sequence RRIRVRPPRLPRPRPRPLEQPRP, the “shrunken log2 fold change” value is -0.0372.

Take RRIRQRPPRLPRPRPRPRWIPRP: the “shrunken log2 fold change” value turned out to be 0.274.

Take RRIRFRPPRLPRPRPRPLVCPRP: the “shrunken log2 fold change” value was -0.365.

Regarding RRIRGRPPRLPRPRPRPIEHPRP, the “shrunken log2 fold change” value turned out to be 0.125.

On to RRIRLRPPRLPRPRPRPVWIPRP, for which the “shrunken log2 fold change” value was 0.0148.

For RRIRIRPPRLPRPRPRPVEFPRP, the “shrunken log2 fold change” value was -0.0453.

For the sequence RRIRLRPPRLPRPRPRPVKHPRP, the “shrunken log2 fold change” value was -0.131.

For the sequence RRIRIRPPRLPRPRPRPEQIPRP, the “shrunken log2 fold change” value was -9e-05.

On to RRIRDRPPRLPRPRPRPSMAPRP, for which the “shrunken log2 fold change” value is 0.202.

Turning to RRIRLRPPRLPRPRPRPADMPRP, the “shrunken log2 fold change” value was -0.445.

RRIRLRPPRLPRPRPRPCYHPRP: the “shrunken log2 fold change” value was -0.569.

As to RRIRWRPPRLPRPRPRPWKHPRP, the “shrunken log2 fold change” value was determined as 0.0264.

For the sequence RRIRRRPPRLPRPRPRPFEMPRP, the “shrunken log2 fold change” value was determined as 0.0983.

On to RRIRKRPPRLPRPRPRPVWFPRP, for which the “shrunken log2 fold change” value came out at 0.142.

Regarding RRIRHRPPRLPRPRPRPAIFPRP, the “shrunken log2 fold change” value is -0.00284.

With RRIRHRPPRLPRPRPRPNRKPRP, the “shrunken log2 fold change” value is 0.0857.

For the sequence RRIRFRPPRLPRPRPRPQYMPRP, the “shrunken log2 fold change” value was -1.77.

For the sequence RRIRPRPPRLPRPRPRPMPAPRP, the “shrunken log2 fold change” value is 0.0935.

Turning to RRIRERPPRLPRPRPRPIRTPRP, the “shrunken log2 fold change” value was -0.577.

Consider RRIRHRPPRLPRPRPRPTIYPRP, for which the “shrunken log2 fold change” value was -0.254.

Regarding RRIRKRPPRLPRPRPRPFESPRP, the “shrunken log2 fold change” value came out at 0.0457.

Take RRIRIRPPRLPRPRPRPCKIPRP: the “shrunken log2 fold change” value is -0.293.

On to RRIRLRPPRLPRPRPRPFCAPRP, for which the “shrunken log2 fold change” value amounted to 0.106.

Turning to RRIRIRPPRLPRPRPRPPGHPRP, the “shrunken log2 fold change” value is 0.11.

Consider RRIRNRPPRLPRPRPRPLSTPRP, for which the “shrunken log2 fold change” value came to 0.0462.

With RRIRPRPPRLPRPRPRPMMYPRP, the “shrunken log2 fold change” value is -0.198.

On to RRIRARPPRLPRPRPRPWVPPRP, for which the “shrunken log2 fold change” value is -0.146.

Turning to RRIRSRPPRLPRPRPRPGDSPRP, the “shrunken log2 fold change” value was -0.0926.

For the sequence RRIRNRPPRLPRPRPRPIRKPRP, the “shrunken log2 fold change” value was -0.0111.

As for RRIRWRPPRLPRPRPRPLEEPRP, the “shrunken log2 fold change” value is 1.06.

As for RRIRCRPPRLPRPRPRPQVRPRP, the “shrunken log2 fold change” value was -0.236.

On to RRIRNRPPRLPRPRPRPKGIPRP, for which the “shrunken log2 fold change” value was found to be 0.0346.

With RRIRGRPPRLPRPRPRPLWGPRP, the “shrunken log2 fold change” value turned out to be 0.583.

As for RRIRNRPPRLPRPRPRPFWYPRP, the “shrunken log2 fold change” value is 0.0148.

With RRIRTRPPRLPRPRPRPGAEPRP, the “shrunken log2 fold change” value is 0.25.

For the sequence RRIRDRPPRLPRPRPRPHNIPRP, the “shrunken log2 fold change” value is -0.53.

For RRIRDRPPRLPRPRPRPACNPRP, the “shrunken log2 fold change” value worked out at 0.0741.

For the sequence RRIRYRPPRLPRPRPRPWPAPRP, the “shrunken log2 fold change” value was found to be 0.00297.

Consider RRIRWRPPRLPRPRPRPKGHPRP, for which the “shrunken log2 fold change” value came out at 0.108.

On to RRIRMRPPRLPRPRPRPHKYPRP, for which the “shrunken log2 fold change” value was -0.152.

For RRIRCRPPRLPRPRPRPDPNPRP, the “shrunken log2 fold change” value is -0.00486.

As for RRIRVRPPRLPRPRPRPYTPPRP, the “shrunken log2 fold change” value was -0.645.

In the case of RRIRGRPPRLPRPRPRPYGCPRP, the “shrunken log2 fold change” value was -0.091.

In the case of RRIRSRPPRLPRPRPRPWRMPRP, the “shrunken log2 fold change” value is -0.181.

Regarding RRIRVRPPRLPRPRPRPYHNPRP, the “shrunken log2 fold change” value was -0.946.

RRIRQRPPRLPRPRPRPCATPRP: the “shrunken log2 fold change” value is -0.0476.

For the sequence RRIRARPPRLPRPRPRPFHFPRP, the “shrunken log2 fold change” value was -0.25.

For the sequence RRIRTRPPRLPRPRPRPGVYPRP, the “shrunken log2 fold change” value is -0.116.

In the case of RRIRSRPPRLPRPRPRPLPYPRP, the “shrunken log2 fold change” value was -0.25.

For the sequence RRIRTRPPRLPRPRPRPLPRPRP, the “shrunken log2 fold change” value worked out at 0.484.

Turning to RRIRIRPPRLPRPRPRPKQNPRP, the “shrunken log2 fold change” value was -0.197.

Take RRIRVRPPRLPRPRPRPSLWPRP: the “shrunken log2 fold change” value was determined as 0.183.

With RRIRVRPPRLPRPRPRPWCKPRP, the “shrunken log2 fold change” value turned out to be 0.0335.

Consider RRIRQRPPRLPRPRPRPPMHPRP, for which the “shrunken log2 fold change” value amounted to 0.277.

With RRIRPRPPRLPRPRPRPYFHPRP, the “shrunken log2 fold change” value is -0.522.

As to RRIRRRPPRLPRPRPRPTRTPRP, the “shrunken log2 fold change” value stood at 0.681.

In the case of RRIRSRPPRLPRPRPRPFQHPRP, the “shrunken log2 fold change” value was -0.0131.

On to RRIRDRPPRLPRPRPRPCLEPRP, for which the “shrunken log2 fold change” value amounted to 0.103.

In the case of RRIRQRPPRLPRPRPRPHVWPRP, the “shrunken log2 fold change” value was found to be 0.03.

In the case of RRIRERPPRLPRPRPRPALFPRP, the “shrunken log2 fold change” value worked out at 0.0738.

Regarding RRIRDRPPRLPRPRPRPRSCPRP, the “shrunken log2 fold change” value came out at 0.2.

RRIRKRPPRLPRPRPRPTCWPRP: the “shrunken log2 fold change” value came to 0.499.

On to RRIRWRPPRLPRPRPRPQWFPRP, for which the “shrunken log2 fold change” value was -0.27.

Turning to RRIRNRPPRLPRPRPRPQDYPRP, the “shrunken log2 fold change” value is 0.087.

As for RRIRWRPPRLPRPRPRPTCRPRP, the “shrunken log2 fold change” value was determined as 0.0452.

RRIRERPPRLPRPRPRPAMEPRP: the “shrunken log2 fold change” value was -0.0417.

In the case of RRIRHRPPRLPRPRPRPPFHPRP, the “shrunken log2 fold change” value was -0.119.

RRIRHRPPRLPRPRPRPFGIPRP: the “shrunken log2 fold change” value is -0.0887.

In the case of RRIRTRPPRLPRPRPRPLQNPRP, the “shrunken log2 fold change” value is 0.163.

As for RRIRCRPPRLPRPRPRPYIRPRP, the “shrunken log2 fold change” value is -1.22.

For RRIRLRPPRLPRPRPRPRPRPRP, the “shrunken log2 fold change” value turned out to be 0.823.

Turning to RRIRNRPPRLPRPRPRPLNPPRP, the “shrunken log2 fold change” value is -0.133.

With RRIRVRPPRLPRPRPRPLEIPRP, the “shrunken log2 fold change” value was -0.073.

Take RRIRGRPPRLPRPRPRPVCWPRP: the “shrunken log2 fold change” value amounted to 1.16.

For the sequence RRIRCRPPRLPRPRPRPQCGPRP, the “shrunken log2 fold change” value was -0.609.

RRIRERPPRLPRPRPRPYYMPRP: the “shrunken log2 fold change” value was -0.785.

Consider RRIRERPPRLPRPRPRPEFSPRP, for which the “shrunken log2 fold change” value is -0.178.

In the case of RRIRMRPPRLPRPRPRPKSYPRP, the “shrunken log2 fold change” value turned out to be 0.0526.

Consider RRIRRRPPRLPRPRPRPEKQPRP, for which the “shrunken log2 fold change” value was determined as 0.147.

The record behind these values is the supplement of paper PMC9112550, “Optimization of the antimicrobial peptide Bac7 by deep mutational scanning” (BMC Biology, 2022).
